# Results as given in patent US20260242478A1 (published 2026).
# B1: Phage-3883 (peptide)
# peptide: VDYVCRPSWMCSGI
# notes: tested as crude phage supernatant; The number 3883 of the label stands in r4366
# B2: Phage-3887 (peptide)
# peptide: ILRHCTPEWMCIGL
# notes: tested as crude clonal phage supernatant
# B3: Phage-3885 (peptide)
# peptide: GMVRCVPDWMCYGF
# notes: as for B2
# B4: Phage-3884 (peptide)
# peptide: TEPACVPPWMCVGW
# notes: as for B2
# B5: Phage-3886 (peptide)
# peptide: TEHQCVPAWMCGGF
# notes: as for B2
# Target: T1, PSMA Fab
# T1 construct: also called Anti-PSMA Fab; 006 PSMA Fab
# Assay: clonal phage ELISA on biotinylated PSMA Fab captured on neutravidin plates, anti-M13 HRP detection;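 note: crude clonal phage supernatants tested, before phage were added, wells were pretreated with PSMA antigen in blocking buffer or with blocking buffer only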
# Protocol: (§1) Clonal phage were harvested as crude supernatants and screened via standard ELISAs. […] Prior to the addition of clonal phage. wells were incubated with blocking buffer and PSMA antigen or blocking buffer alone. Without washing or aspirating, clonal phage supernatants were then added to the wells and incubated for a short time. Wells were then washed followed by detection of bound phage using a horse radish conjugated anti-M13 antibody.
row,Binder,phage binding ELISA signal
1,EDALCVPQWMCSGF (tested as crude phage supernatant) [Phage-3877],1.14
2,PQIKCIPAWMCDGF (tested as crude phage supernatant) [Phage-3875],1.14
3,AVIMCEPSWMCEGF (tested as crude phage supernatant) [Phage-3870],1.16
4,TAPMCNPPWMCYGL (tested as crude phage supernatant) [Phage-3878],1.13
5,EGILCKPSWMCNDF (tested as crude phage supernatant) [Phage-3871],1.15
6,VTPACMPRWMCEGF (tested as crude phage supernatant) [Phage-3879],1.13
7,LQQLCVPNWMCVGF (tested as crude phage supernatant) [Phage-3873],1.15
8,SNVMCRPSWMCAGF (tested as crude phage supernatant) [Phage-3876],1.14
9,IEKQCVPQWMCDGF (tested as crude phage supernatant) [Phage-3880],1.13
10,YDRLCSPPWMCSGF (tested as crude phage supernatant) [Phage-3874],1.15
11,ESKLCIPDWMCILL (tested as crude phage supernatant) [Phage-3881],1.13
12,B1,1.12
13,STMLCSPSWMCFGF (tested as crude phage supernatant) [Phage-3872],1.15
14,MDVWCVPQWMCDGF (tested as crude phage supernatant) [Phage-3882],1.12

# Target: T1, PSMA Fab
# Assay: clonal phage ELISA on captured PSMA Fab, wells pre-incubated with PSMA antigen as competitor
# Protocol: as §1
row,Binder,phage binding ELISA signal
1,EDALCVPQWMCSGF (tested as crude phage supernatant) [Phage-3877],0.0648
2,PQIKCIPAWMCDGF (tested as crude phage supernatant) [Phage-3875],0.0851
3,AVIMCEPSWMCEGF (tested as crude phage supernatant) [Phage-3870],0.102
4,TAPMCNPPWMCYGL (tested as crude phage supernatant) [Phage-3878],0.0701
5,EGILCKPSWMCNDF (tested as crude phage supernatant) [Phage-3871],0.0803
6,VTPACMPRWMCEGF (tested as crude phage supernatant) [Phage-3879],0.0611
7,LQQLCVPNWMCVGF (tested as crude phage supernatant) [Phage-3873],0.0902
8,SNVMCRPSWMCAGF (tested as crude phage supernatant) [Phage-3876],0.132
9,IEKQCVPQWMCDGF (tested as crude phage supernatant) [Phage-3880],0.0745
10,YDRLCSPPWMCSGF (tested as crude phage supernatant) [Phage-3874],0.0629
11,ESKLCIPDWMCILL (tested as crude phage supernatant) [Phage-3881],0.0662
12,B1,0.0618
13,STMLCSPSWMCFGF (tested as crude phage supernatant) [Phage-3872],0.073
14,MDVWCVPQWMCDGF (tested as crude phage supernatant) [Phage-3882],0.0645

# Target: T2, 006 PSMA Fab (biotinylated (site not stated))
# T2 construct: also called Anti-PSMA Fab
# Assay: clonal phage ELISA; biotinylated PSMA Fab on neutravidin plate pre-incubated with PSMA antigen as competitor, anti-M13-HRP detection
row,Binder,"Phage binding ELISA signal, Anti-PSMA Fab in the presence of PSMA antigen"
1,B2,0.0689
2,B3,0.0613
3,B4,0.128
4,B5,0.0809

# Target: T3, PSMA Fab (006 PSMA Fab) (biotinylated (site not stated))
# T3 construct: also called Anti-PSMA Fab
# Assay: clonal phage ELISA on plate-captured biotinylated PSMA Fab, blocking buffer alone, anti-M13 HRP detection
row,Binder,"Phage binding ELISA signal, Anti-PSMA Fab"
1,PYSICKPDWMCTGL [Phage-3840],1.22
2,NYNACVPIWMCEGF [Phage-3839],1.22
3,SEMRCSPPWMCYGF [Phage-3841],1.22

# Target: T3, PSMA Fab (006 PSMA Fab)
# Assay: clonal phage ELISA on plate-captured biotinylated PSMA Fab pre-incubated with PSMA antigen as competitor, anti-M13 HRP detection
# Protocol: as §1
row,Binder,"Phage binding ELISA signal, Anti-PSMA Fab in presence of PSMA"
1,PYSICKPDWMCTGL [Phage-3840],0.0653
2,NYNACVPIWMCEGF [Phage-3839],0.104
3,SEMRCSPPWMCYGF [Phage-3841],0.0822

# Target: T2, 006 PSMA Fab
# Assay: clonal phage ELISA; biotinylated PSMA Fab on neutravidin plate, blocking buffer alone, anti-M13-HRP detection;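 note: crude clonal phage supernatants added without washing to wells preincubated with PSMA antigen or with blocking buffer alone, briefly incubated, then washed before bound phage detection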
# Protocol: as §1
row,Binder,"Phage binding ELISA signal, Anti-PSMA Fab"
1,B2,1.11
2,B3,1.11
3,B4,1.12
4,B5,1.11

# Target: T4, PSMA Fab (biotinylated (site not stated))
# T4 construct: Biotinylated PSMA Fab captured on neutravidin coated plates in the phage ELISA; also called Anti-PSMA Fab; 006 PSMA Fab
# Assay: phage ELISA; biotinylated PSMA Fab on neutravidin plate pre-incubated with PSMA antigen as competitor, anti-M13 HRP detection;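 note: crude clonal phage supernatants tested, compared against control wells pre-incubated with blocking buffer only, without PSMA antigen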
row,Binder,"Phage binding ELISA signal, Anti-PSMA Fab in presence of PSMA"
1,NYVKCRPAWMCDGF [Phage-3855],0.0759
2,VVHLCTPNWMCNGF [Phage-3853],0.0576
3,WDIRCSPEWMCIGL [Phage-3849],0.0603
4,LYEMCKPLWMCAGF [Phage-3842],0.0737
5,EPKECVPPWMCIGM [Phage-3850],0.079
6,PFLACIPQWMCEVV [Phage-3843],0.247
7,SGLSCVPFWMCTGF [Phage-3845],0.0662
8,ELRLCVPHWMCDGF [Phage-3847],0.0777
9,VSKMCSPVWMCEGF [Phage-3854],0.0928
10,VPRLCMPPWMCVGF [Phage-3848],0.0968
11,YNQLCIPNWMCTGF [Phage-3846],0.0729
12,DQRMCEPSWMCLGL [Phage-3852],0.0704
13,WQAWCEPPWMCLGF [Phage-3851],0.0962
14,SDMVCKPPWMCYGF [Phage-3844],0.0897

# Target: T4, PSMA Fab
# Assay: phage ELISA; biotinylated PSMA Fab on neutravidin plate, clonal phage supernatant, anti-M13 HRP detection;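 note: wells preincubated with PSMA antigen in blocking buffer or with blocking buffer only before clonal phage were added for a short incubation, then bound phage detected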
# Protocol: as §1
row,Binder,"Phage binding ELISA signal, Anti-PSMA Fab"
1,NYVKCRPAWMCDGF [Phage-3855],1.18
2,VVHLCTPNWMCNGF [Phage-3853],1.19
3,WDIRCSPEWMCIGL [Phage-3849],1.21
4,LYEMCKPLWMCAGF [Phage-3842],1.22
5,EPKECVPPWMCIGM [Phage-3850],1.21
6,PFLACIPQWMCEVV [Phage-3843],1.22
7,SGLSCVPFWMCTGF [Phage-3845],1.21
8,ELRLCVPHWMCDGF [Phage-3847],1.21
9,VSKMCSPVWMCEGF [Phage-3854],1.19
10,VPRLCMPPWMCVGF [Phage-3848],1.21
11,YNQLCIPNWMCTGF [Phage-3846],1.21
12,DQRMCEPSWMCLGL [Phage-3852],1.19
13,WQAWCEPPWMCLGF [Phage-3851],1.2
14,SDMVCKPPWMCYGF [Phage-3844],1.22

# Target: T5, Anti-PSMA Fab
# T5 construct: In the phage ELISA the PSMA Fab was biotinylated and captured on neutravidin coated plates; also called 006 PSMA Fab
# Assay: as above
# Protocol: as §1
row,Binder,"Phage binding ELISA signal, Anti-PSMA Fab"
1,GQGSCVPMWMCEGF [Phage-3866],1.16
2,QLGACIPWWMCNGF [Phage-3863],1.17
3,PYTLCRPAWMCQAM [Phage-3868],1.16
4,YELACVPRWMCYGL [Phage-3856],1.18
5,GSHYCVPQWMCGGF [Phage-3858],1.17
6,NAGYCVPTWMCDGF [Phage-3864],1.17
7,IESICRPAWMCERL [Phage-3860],1.17
8,VQIVCSPTWMCTGF [Phage-3861],1.17
9,PSQMCVPTWMCVGF [Phage-3862],1.17
10,SDHLCIPRWMCVGF [Phage-3857],1.18
11,LEIFCVPMWMCEGL [Phage-3869],1.16
12,MGVECKPLWMCTGL [Phage-3865],1.16
13,LSWECVPQWMCTGL [Phage-3867],1.16
14,EHARCTPAWMCAGF [Phage-3859],1.17
